Assay results as given in patent US20240336683A1 (published 2024).

T1: human Siglec15-Fc fusion protein (human, UniProt Q6ZMC9 20-263)
T1 construct: Bought protein (Acro #SG5-H5253 is named for the selection); also called recombinant Siglec 15-Fc fusion protein (Acro #SG5-H5253); human Siglec15-Fc protein; not shown: Fc part of the bought fusion protein
T1 sequence (looked up): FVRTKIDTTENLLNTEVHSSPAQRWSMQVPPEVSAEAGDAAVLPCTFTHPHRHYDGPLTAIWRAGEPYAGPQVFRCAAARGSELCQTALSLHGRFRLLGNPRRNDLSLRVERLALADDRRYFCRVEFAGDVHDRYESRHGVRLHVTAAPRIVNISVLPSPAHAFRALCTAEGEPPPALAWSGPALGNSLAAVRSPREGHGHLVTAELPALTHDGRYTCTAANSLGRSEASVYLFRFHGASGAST

T2: full-length human Siglec15 with C-terminal flag and Myc tags on HEK293 cells (human, UniProt Q6ZMC9 20-328)
T2 construct: whole, on cells; also called Siglec15/HEK293; HEK293-Siglec 15; not shown: C-terminal flag and Myc tags from pCMV6-Entry vector
T2 sequence (looked up): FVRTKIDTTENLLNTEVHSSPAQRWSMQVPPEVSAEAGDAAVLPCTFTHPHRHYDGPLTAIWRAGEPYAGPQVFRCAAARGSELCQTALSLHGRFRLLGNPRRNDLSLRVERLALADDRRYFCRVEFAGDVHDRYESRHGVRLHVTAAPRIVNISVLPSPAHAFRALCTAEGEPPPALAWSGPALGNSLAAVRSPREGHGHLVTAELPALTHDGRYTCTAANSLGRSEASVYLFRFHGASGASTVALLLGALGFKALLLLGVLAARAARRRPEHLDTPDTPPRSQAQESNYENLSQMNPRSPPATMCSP

B1: 2020EP083-G11 scFv (scFv, V domains shown)
VH: EVQLVESGGGLVEPGGSLRLSCAASGFTFSSYSMSWVRQAPGKGLEWVGRIKSETDGGTTDYAGPAKGKFIISRNDAENTVSLQMNSLKFEDTAVYHCTTDSSSSWFSYSFDNWGQETLVTVSS
VL: EIVMTQSPATLSVSPGERATLSCRASQNVNSNLAWYQQKTGQAPRLLIFGASTRATGIPARFSGSGSGTEFTLTIGSLQSEDFAVYYCQQYNNWPPTFGGWTKVEIK
notes: Tested as a single-chain scFv made in E. coli with a C-terminal flag and 6x His tag
B2: 2019EP47-C12 scFv (scFv, V domains shown)
VH: EVQLVESGGGLEKPGRSLRLSCTASGFTFGDYAMSWFRQAPGKGLEWVGFITTKPYGGTTEYAASVKGRFTISRDDSKSIAYLQMNSLKTEDTAEYYCTKDSEAYYGSGSYMVGYWGQGTLVTVSS
VL: QSVLTQPPSVSLAPGKTATITCGGDNIENKDVHWYQQKPGQAPVLVIRFAADRPSGIPERFSGSSSGNTATLTISRVEAGDEADYYCQVWQSTRDHPVVVFGGGTKLTVL
notes: as for B1
B3: 2020EP032-B03 scFv (scFv, V domains shown)
VH: QVQLQQWGAGLLKPSETLSLTCAVYGGSFSGYYWSWIRQPPGKGLEWIGEINHSGSTNYNPSLKSRVTISVDTSKNQFSLKLSSVTAADTAVYYCARGPLRKYYDFWSGSRNYYYYGMDVWGQGTTVTVSS
VL: QPVLTQDPAVSVALGQTVRITCQGDSLRSNYASWYQLKPGQAPVLVIYDKNNRPSGIPDRFSGSNSGNTASLTIAGAQAEDEADYYCTSRDSSGTVFGGGTKLTVL
notes: as for B1
B4: 2019EP47-A10 scFv (scFv, V domains shown)
VH: QMQLVQSGGGVVQPGRSLRLSCAASGFTFSSYGMHWVRQAPGKGLEWVAVISYDGSNKYYADSVKDRFTISRDNSKNTLYLQMNSLRAEDTAVYYCAKDIVGDSGSYPIYYYYGMDVWGQGTTVTVSS
VL: SQSALTQPHSVSESPGKTVTISCTRSSGSIASNYVQWYQQRPGSAPSTVIYEDNQRPSGVPDRFSGSVDISSNSASLTISGLQTEDEADYYCQSYDNDNMVFGGGTKLTVL
notes: as for B1
B5: 2019EP47-A05 scFv (scFv, V domains shown)
VH: QMQLVQSGAEVKKPGSSVKVSCKASGGTFSSYAISWVRQAPGQGLEWMGRIIPILGIANYAQKFQGRVTITADKSTSTAYMELSSLRSEDTAVYYCAVNTYYYDSSGYYYEYFDYWGQGTLVTVSS
VL: EIVLTQSPSSLSASVGDRVTITCQASQHINNHLNWYQQKPGKGPKLLIYDVSNLEAGVPSRFSASGSGTDFSFTISSLQPEDFATYYCQQYDSLPLTFGQGTKVEVK
notes: as for B1
B6: 2019EP47-A02 scFv (scFv, V domains shown)
VH: EVQLVQSGGGVVQPGRSLRLSCAASGFTFSSYAMHWVRQAPGKGLEWVAVISYDGSNKYYADSVKGRFTISRDNSKNTLYLQMNSLRAEDTAVYYCARSRYSSSLRRYYGMDVWGQGTTVTVSS
VL: AIQLTQSPSSLSASVGDRVTITCQATHDIANYLNWYQQKPGKAPKLLIYAASNLETGVPSRFSGSGSGTDFTFAISSLQPEDIAVYYCQQYDNLPLTFGGGTKVEIK
notes: as for B1
B7: 2020EP083-H01 scFv (scFv, V domains shown)
VH: QLQLQESGPGLVKPAETLSLTCTVSGGSVSSGDNLWDWIRQPPGKGLEWIGSIRDSGNPAYNPSLRSRVTISADTSTDQFSLKLTSVTAADTAVYYCARHSDGGYGKIYGMDVWGQGTTVTVSS
VL: DIQLTQSPSFLSASVGDRVTITCRASQAVSTYLVWYLQKPGQAPRLLIYAASTLQSGVPSRFSGSGSGTDFTLTISRLQPEDAGTYFCQQLNSNALVFGGGTKVDIK
notes: as for B1
B8: 2020EP032-A08 scFv (scFv, V domains shown)
VH: QVQLQQWGAGLLKPSETLSLTCAVYGGSFSGYYWSWIRQPPGKGLEWIGEINHSGSTNYNPSLKSRVTISVDTSKNQFSLKLSSVTAADTAVYYCARGVYYYDSSGPRDYFDYWGQGTLVTVSS
VL: DIVMTQSPSSLSASVGDRVTITCQASQDISNYLNWYQQKPGKAPKLLIYDASNLKTGVPSRFSGSGSGTDFTFTITSLQPEDIGTYFCQQYGNLPYTFGQGTKLEIK
notes: as for B1
B9: 2020EP085-G5 scFv (scFv, V domains shown)
VH: QVQLVQSGAEVKKPGASVKVSCKASGYTFTDYYMHWVRQAPGQGLEWMGWINPNSGGTNYAQKFQGRVTMTRDTSITTAYMELSWLRSDDTAVYYCAREVGTTTTGVDYWGQGTLVTVSS
VL: VIWMTQSPSSLSASVGDRVTFTCQASQDINIYLTWYQIKPGKAPKVLIYDASTLESGVPSRFSGSGFGTHFVFTISSLQPEDFATYYCQHYDSLPLTFGGGTKVEIK
notes: as for B1
B10: 2020EP032-A12 scFv (scFv, V domains shown)
VH: QMQLVQSGGGVVQPGRSLRLSCAASGFTFSSYGMHWVRQAPGKGLEWVAVISDDGSNKYYADSVKGRFTISRDNSKNTLYLQMNSLRAEDTAVYYCAKKDVATILFDNWGQGTLVTVSS
VL: VIWMTQSPSTLSASVGDRVTITCRASQSITRWLAWYQQKPGKAPKLLIYKTSDLDGGVPSRFSGSESGAEFTLTISSLQPDDVATYFCQHYNTRSWTFGQGTKVELK
notes: as for B1
B11: 2020EP032-C09 scFv (scFv, V domains shown)
VH: QVQLVESGGGLVKPGGSLRLSCAASGFSFNNAWMSWVRQAPGKGLEWVGRIKSKTDDATTEYAAPVEGRFTISRDDSKNMLYLQMDSLKTEDTAVYYCTTDLRWEELPMYWGQGTLVTVSS
VL: VIWMTQSPSSLSASVGDRVTITCRASQGIRNDLGWYQQKPGKAPKVLIYAASSLQSGVPSRFSGSGSGTDFTLTISSLQPEDFATYYCLQDYNYPQTFGQGTKVGIKR
notes: as for B1

Columns and labels:
[1] = molecular target: T1, human Siglec15-Fc fusion protein; assay: ELISA; Siglec15-Fc captured by anti-hFc, scFv titrated, anti-Flag HRP
Procedure: An ELISA assay was developed to determine the EC50 of anti-Siglec15 antibodies. Briefly, a 384 well plate was immobilized with anti-human Fc antibody at final concentration of 2 ug/mL in 1×PBS in total volume of 25 uL per well. The plate was incubated overnight at 4° C. followed by blocking with 80 uL of superblock per well for 1 hour. Human Siglec 15-Fc was captured through immobilized anti-hFc antibody. Purified anti-Siglec 15 scFvs were 2-fold serial titrated from 200 nM. 25 uL was added to human Siglec15 immobilized wells and incubated for 1 hour with shaking. The Siglec15 binding was detected by adding 25 uL of anti-Flag HRP diluted at 1:5000 in 1×PBST. In between each step, the plate was washed 3 times with 1×PBST in a plate washer. The plate was then developed with 20 uL of TMB substrate for 5 mins and stopped by adding 20 uL of 2 N sulfuric acid. The plate was read at OD450 nm Biotek plate reader and then plotted in Prism 8.1 software.

[2] = molecular target: T2, full-length human Siglec15 with …; assay: FACS on Siglec15/HEK293 cells, scFv, anti-His detection
Procedure: […] Cells were spun down at 1200 rpm for 5 minutes at 4° C. to remove primary antibodies. Cells were then washed once with 200 uL of full medium per well. Samples were detected with premixed anti-His Biotin Streptavidin Alexa fluor 647 by adding 100 uL of diluted secondary antibody and incubated at 4° C. for 30 minutes in the dark. Samples were spun down at 1200 rpm for 5 minutes at 4° C. and washed twice with 200 uL of 1×PBS per well. Samples were then reconstituted in 200 uL of 1×PBS and read on Attune NxT cytometer. Analysis was performed using Attune NxT software plotting the overlaying the histogram of anti-Siglec15 scFvs binding onto both negative and target cell lines.

[3] = molecular target: T1, human Siglec15-Fc fusion protein; assay: SPR Biacore T200; Siglec15-Fc captured on Protein A chip, scFv as analyte
Procedure: Kinetic analysis of anti-Siglec15 scFvs were assessed by SPR technology with Biacore T200. The assay was run with Biacore T200 control software version 2.0. Protein A sensor chip was used to capture Fc fusion protein in the assay. For each cycle, 1 ug/mL of human Siglec15-Fc protein was captured for 60 seconds at flow rate of 10 ul/min on flow cell 2 in 1× HBSP buffer on Protein A sensor chip. 2-fold serial diluted HIS tag purified anti-Siglec15 scFv was injected onto both reference flow cell 1 and Siglec 15-Fc captured flow cell 2 for 150 seconds at flow rate of 30 ul/min followed by wash for 300 seconds. The flow cells were then regenerated with Glycine pH 2 buffer (GE) for 30 seconds at flow rate of 30 ul/mins. 8 concentration points from 300-0 nM was assayed per anti-Siglec15 scFv in a 96 well plate. The kinetics of scFvs binding to Siglec 15 protein was analyzed with Biacore T200 evaluation software version 3.0. The specific binding response unit was derived from subtraction of binding to reference flow cell 1 from Siglec15 captured flow cell 2.

Binder | EC50 [1] [nM] | EC50 [2] [nM] | Kd [3] [nM] | koff [3] [s⁻¹] | kon [3] [M⁻¹ s⁻¹]
B1 | 1.29 | 0.87 | 1.12 | 0.000356 | 318000
B2 | 9.97 | 13.1 | – | – | –
B3 | 1.78 | 1.22 | 2.11 | 0.000282 | 134000
B4 | 2.5 | 112 | 3.32 | 6.02e-05 | 18200
B5 | 3.35 | 88.3 | 2.79 | 7.77e-05 | 27900
B6 | 21.9 | 10.6 | 58.8 | 0.00149 | 28700
B7 | 2.54 | 0.23 | 10.4 | 0.00149 | 143000
B8 | 5.87 | 1.6 | 18.1 | 0.000842 | 46400
B9 | 3.3 | 1 | 10.9 | 0.00144 | 132000
B10 | 0.544 | 0.86 | 2.26 | 0.000294 | 130000
B11 | 6.07 | 0.65 | 25.1 | 0.00169 | 67600
